Data as given in article PMC10865538 (BMC Infectious Diseases, 2024).

B1: sdAb12 (VHH)
VHH: EVQLVESGGGLVQPGGSLRLSCAASGNTFPARTMSWVRQAPGKGLELVASIGRGEITYYADSVKGRFTISRDNSKNTLYLQMNSLRAEDTAVYYCAAPAHGSWMSRRPHIYWGQGTLVTVSS
B2: sdAb38 (VHH)
VHH: EVQLVESGGGLVQPGGSLRLSCAASGNTSTRHPMSWVRQAPGKGLELVASIGRGEITYYADSVKGRFTISRDNSKNTLYLQMNSLRAEDTAVYYCAVCLRSVFVNCHNFAYWGQGTLVTVSS
B3: sdAb39 (VHH)
VHH: EVQLVESGGGLVQPGGSLRLSCAASGNTSTRHPMSWVRQAPGKGLELVASIGRGEITYYADSVKGRFTISRDNSKNTLYLQMNSLRAEDTAVYYCAAFVDFLSRHNSRRPYPHGYWGQGTLVTVSS
B4: sdAb42 (VHH)
VHH: EVQLVESGGGLVQPGGSLRLSCAASGNTSTRHPMSWVRQAPGKGLELVASIGRGEITYYADSVKGRFTISRDNSKNTLYLQMNSLRAEDTAVYYCAVDAVFGGRHSHWGQGTLVTVSS
B5: sdAb10 (VHH)
VHH: EVQLVESGGGLVQPGGSLRLSCAASGNTFPARTMSWVRQAPGKGLELVASIGPGRSTIYADSVKGRFTISRDNSKNTLYLQMNSLRAEDTAVYYCAVAYTSGLALRGSFSYWGQGTLVTVSS

Biological target: SARS-CoV-2 S protein receptor-binding domain (R319-F541) (SARS-CoV-2, UniProt P0DTC2)
Assay: ELISA
Conditions: both partners purified

Binder	binding result	EC50 [nM]
B1	binds	
B2	binds	
B3		4
B4	binds	
B5	binds	
